Usually pKd stands for the negative decadic logarithm of the Kd, by convention in mol/L. Read a high pKd as a small Kd.

The target of assay [1] is MYC-tagged NKp46 (extracellular domain) (human) (UniProt O76036). Nature of the assay: MST.
The target in assay [2] is NKp46–Ig (ACROBiosystems), used for MST and BLI (human) (UniProt O76036). Nature of the assay: MST.

pKd: −log10 of the molar value.

Substance “CRT P domain fused to the Fc region of human Ig (Fc fusion)” gave a pKd in assay [1] of 4.39.

In the case of “influenza haemagglutinin, His-tagged (natural protein)”, the pKd in assay [2] is 5.84.
